B1: Protein phosphatase 2C 56 (Arabidopsis thaliana (Mouse-ear cress)), P49597 (parent)
chain: MEEVSPAIAGPFRPFSETQMDFTGIRLGKGYCNNQYSNQDSENGDLMVSLPETSSCSVSGSHGSESRKVLISRINSPNLNMKESAAADIVVVDISAGDEINGSDITSEKKMISRTESRSLFEFKSVPLYGFTSICGRRPEMEDAVSTIPRFLQSSSGSMLDGRFDPQSAAHFFGVYDGHGGSQVANYCRERMHLALAEEIAKEKPMLCDGDTWLEKWKKALFNSFLRVDSEIESVAPETVGSTSVVAVVFPSHIFVANCGDSRAVLCRGKTALPLSVDHKPDREDEAARIEAAGGKVIQWNGARVFGVLAMSRSIGDRYLKPSIIPDPEVTAVKRVKEDDCLILASDGVWDVMTDEEACEMARKRILLWHKKNAVAGDASLLADERRKEGKDPAAMSAAEYLSKLAIQRGSKDNISVVVVDLKPRRKLKSKPLN
B2: Abscisic acid receptor PYL1 (Arabidopsis thaliana (Mouse-ear cress)), Q8VZS8 (parent)
chain: MANSESSSSPVNEEENSQRISTLHHQTMPSDLTQDEFTQLSQSIAEFHTYQLGNGRCSSLLAQRIHAPPETVWSVVRRFDRPQIYKHFIKSCNVSEDFEMRVGCTRDVNVISGLPANTSRERLDLLDDDRRVTGFSITGGEHRLRNYKSVTTVHRFEKEEEEERIWTVVLESYVVDVPEGNSEEDTRLFADTVIRLNLQKLASITEAMNRNNNNNNSSQVR

Variants of: B1
Conditions: with pyl1_arath PYL1, Q8VZS8

| Variant | effect of a mutation on the interaction |
| --- | --- |
| MEEVSPAIAGPFRPFSETQMDFTGIRLGKGYCNNQYSNQDSENGDLMVSLPETSSCSVSGSHGSESRKVLISRINSPNLNMKESAAADIVVVDISAGDEINGSDITSEKKMISRTESRSLFEFKSVPLYGFTSICGRRPEMADAVSTIPRFLQSSSGSMLDGRFDPQSAAHFFGVYDGHGGSQVANYCRERMHLALAEEIAKEKPMLCDGDTWLEKWKKALFNSFLRVDSEIESVAPETVGSTSVVAVVFPSHIFVANCGDSRAVLCRGKTALPLSVDHKPDREDEAARIEAAGGKVIQWNGARVFGVLAMSRSIGDRYLKPSIIPDPEVTAVKRVKEDDCLILASDGVWDVMTDEEACEMARKRILLWHKKNAVAGDASLLADERRKEGKDPAAMSAAEYLSKLAIQRGSKDNISVVVVDLKPRRKLKSKPLN [E142A] | decreasing interaction |
| MEEVSPAIAGPFRPFSETQMDFTGIRLGKGYCNNQYSNQDSENGDLMVSLPETSSCSVSGSHGSESRKVLISRINSPNLNMKESAAADIVVVDISAGDEINGSDITSEKKMISRTESRSLFEFKSVPLYGFTSICGRRPEMEDAVSTIPRFLQSSSGSMLDGRFDPQSAAHFFGVYDGHGGSQVANYCRERMHLALAEEIAKEKPMLCDGDTWLEKWKKALFNSFLRVDSEIESVAPETVGSTSVVAVVFPSHIFVANCGDSRAVLCRGKTALPLSVDHKPDREDEAARIEAAGGKVAQWNGARVFGVLAMSRSIGDRYLKPSIIPDPEVTAVKRVKEDDCLILASDGVWDVMTDEEACEMARKRILLWHKKNAVAGDASLLADERRKEGKDPAAMSAAEYLSKLAIQRGSKDNISVVVVDLKPRRKLKSKPLN [I298A] | disrupting interaction |

Continued, values first:

| effect of a mutation on the interaction | Variant |
| --- | --- |
| disrupting interaction | MEEVSPAIAGPFRPFSETQMDFTGIRLGKGYCNNQYSNQDSENGDLMVSLPETSSCSVSGSHGSESRKVLISRINSPNLNMKESAAADIVVVDISAGDEINGSDITSEKKMISRTESRSLFEFKSVPLYGFTSICGRRPEMEDAVSTIPRFLQSSSGSMLDGRFDPQSAAHFFGVYDGHGGSQVANYCRERMHLALAEEIAKEKPMLCDGDTWLEKWKKALFNSFLRVDSEIESVAPETVGSTSVVAVVFPSHIFVANCGDSRAVLCRGKTALPLSVDHKPDREDEAARIEAAGGKVIQWNGAAVFGVLAMSRSIGDRYLKPSIIPDPEVTAVKRVKEDDCLILASDGVWDVMTDEEACEMARKRILLWHKKNAVAGDASLLADERRKEGKDPAAMSAAEYLSKLAIQRGSKDNISVVVVDLKPRRKLKSKPLN [R304A] |
| decreasing interaction | MEEVSPAIAGPFRPFSETQMDFTGIRLGKGYCNNQYSNQDSENGDLMVSLPETSSCSVSGSHGSESRKVLISRINSPNLNMKESAAADIVVVDISAGDEINGSDITSEKKMISRTESRSLFEFKSVPLYGFTSICGRRPEMEDAVSTIPRFLQSSSGSMLDGRFDPQSAAHFFGVYDGHGGSQVANYCRERMHLALAEEIAKEKPMLCDGDTWLEKWKKALFNSFLRVDSEIESVAPETVGSTSVVAVVFPSHIFVANCGDSRAVLCRGKTALPLSVDHKPDREDEAARIEAAGGKVIQWNGARVFGVLAMSRSIGDRALKPSIIPDPEVTAVKRVKEDDCLILASDGVWDVMTDEEACEMARKRILLWHKKNAVAGDASLLADERRKEGKDPAAMSAAEYLSKLAIQRGSKDNISVVVVDLKPRRKLKSKPLN [Y319A] |
| disrupting interaction | MEEVSPAIAGPFRPFSETQMDFTGIRLGKGYCNNQYSNQDSENGDLMVSLPETSSCSVSGSHGSESRKVLISRINSPNLNMKESAAADIVVVDISAGDEINGSDITSEKKMISRTESRSLFEFKSVPLYGFTSICGRRPEMEDAVSTIPRFLQSSSGSMLDGRFDPQSAAHFFGVYDGHGGSQVANYCRERMHLALAEEIAKEKPMLCDGDTWLEKWKKALFNSFLRVDSEIESVAPETVGSTSVVAVVFPSHIFVANCGDSRAVLCRGKTALPLSVDHKPDREDEAARIEAAGGKVIQANGARVFGVLAMSRSIGDRYLKPSIIPDPEVTAVKRVKEDDCLILASDGVWDVMTDEEACEMARKRILLWHKKNAVAGDASLLADERRKEGKDPAAMSAAEYLSKLAIQRGSKDNISVVVVDLKPRRKLKSKPLN [W300A] |

Variants of: B2
Conditions: with ABI1, P49597

| Variant | effect of a mutation on the interaction |
| --- | --- |
| MANSESSSSPVNEEENSQRISTLHHQTMPSDLTQDEFTQLSQSIAEFHTYQLGNGRCSSLLAQRIHAPPETVWSVVRRFDRPQIYKHFIKSCNVSEDFEMRVGCTRDVNVISGLPANTSRERLDLLDDDRRVTGFSITGGEHALRNYKSVTTVHRFEKEEEEERIWTVVLESYVVDVPEGNSEEDTRLFADTVIRLNLQKLASITEAMNRNNNNNNSSQVR [R143A] | decreasing interaction |
| MANSESSSSPVNEEENSQRISTLHHQTMPSDLTQDEFTQLSQSIAEFHTYQLGNGRCSSLLAQRIHAPPETVWSVVRRFDRPQIYKHFIKSCNVSEDFEMRVGCTRDVNVISGLPANTSRERLDLLDDDRRVTGFSITGGEHRLRNYKSVTTVHRFEKEEEEERIWTVVLESYVVDVPEGNSEEDTRLAADTVIRLNLQKLASITEAMNRNNNNNNSSQVR [F189A] | decreasing interaction |
| MANSESSSSPVNEEENSQRISTLHHQTMPSDLTQDEFTQLSQSIAEFHTYQLGNGRCSSLLAQRIHAPPETVWSVVRRFDRPQIYKHFIKSCNVSEDFEMRVGCTRDVNVISGLPANTSRERLDLLDDDRRVTGFSITGGEHRARNYKSVTTVHRFEKEEEEERIWTVVLESYVVDVPEGNSEEDTRLFADTVIRLNLQKLASITEAMNRNNNNNNSSQVR [L144A] | disrupting interaction |
| MANSESSSSPVNEEENSQRISTLHHQTMPSDLTQDEFTQLSQSIAEFHTYQLGNGRCSSLLAQRIHAPPETVWSVVRRFDRPQIYKHFIKSCNVSEDFEMRVGCTRDVNVISGLPANTSRERLDLLDDDRRVTGFSITGGEARLRNYKSVTTVHRFEKEEEEERIWTVVLESYVVDVPEGNSEEDTRLFADTVIRLNLQKLASITEAMNRNNNNNNSSQVR [H142A] | disrupting interaction |
